Measurements: article PMC11549089
“And” between values parts separate entries of the source, which are not always exact repeats. Identical values can stand only once.

Molecular target: influenza A virus RNA polymerase (FluAPol) heterotrimer of human influenza A/NT/60/1968 (H3N2) (human influenza A/NT/60/1968 (H3N2) virus) (UniProt P03429)
Test: cryo-EM structure

Question: Which stoichiometry N does the source give for “influenza A virus RNA polymerase (FluAPol) heterotrimer of human influenza A/NT/60/1968 (H3N2) (from UniProt P03429) (complex)” here?
Answer: 2 and 6
